The values that follow come from patent publication US20210054076A1 (Chugai, published 2021).

Numbering of substitutions follows the chain as printed.

One assay deals with T1, mouse CLDN4 (mouse, UniProt O35054 1-210).
T1 construct: whole, on cells; also called mCLDN4; BaF3_mCLDN4
T1 sequence (looked up): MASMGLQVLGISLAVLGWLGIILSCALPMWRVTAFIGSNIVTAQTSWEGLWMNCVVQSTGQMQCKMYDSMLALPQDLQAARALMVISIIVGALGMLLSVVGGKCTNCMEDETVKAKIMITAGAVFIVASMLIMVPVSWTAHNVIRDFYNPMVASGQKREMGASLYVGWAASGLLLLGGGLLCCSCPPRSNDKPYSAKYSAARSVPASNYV
The assay can be described thus: FACS on Ba/F3 transfectant, antibody 20 micro g/ml, FITC anti-human IgG. As for the experimental part:
(§1) To evaluate the binding activity and specificity of the generated CLDN6-TRABs against CLDN6 and other Claudin family antigens, FACS analysis was conducted as follows. Ba/F3 transfectants stably express a kind of protein selected from human CLDN3 (hCLDN3), human CLDN4 (hCLDN4), human CLDN6 (hCLDN6), human CLDN9 (hCLDN9), mouse CLDN3 (mCLDN3), mouse CLDN4 (mCLDN4) and mouse CLDN6 (mCLDN6), were generated using similar method described in WO2008/087978, and named BaF3_hCLDN3, BaF3_hCLDN4, BaF3_hCLDN6, BaF3_hCLDN9, BaF3 mCLDN3, BaF3 mCLDN4, BaF3 mCLDN6, respectively. Each of the CLDN6-TRABs (CH01/CD3, CH02/CD3, CH03/CD3, CH04/CD3) was incubated with the Ba/F3 transfectants at an antibody concentration of 20 micro g/ml in FACS buffer (0.5% BSA containing autoMACS Rinsing Solution, Miltenyl Biotec). Binding activities of each CLDN6-TRAB to the Claudin family proteins (hCLDN3, hCLDN4, hCLDN6, hCLDN9, mCLDN3, mCLDN4, mCLDN6) were examined by incubation of FITC-conjugated goat anti human IgG (BeckmanCoulter), represented as Geo-mean value. Sample processing was conducted on FACSVerse (BD).
(§2) Claudin family proteins have two extracellular domains. The sequence of the first extracellular domain in human CLDN9 is almost the same compared with the first extracellular domain of human CLDN6. For the second extracellular domain of human CLDN9, there are only two amino acids different from the ones at their corresponding positions in human CLDN6 (FIG. 2). The glutamine at position 156 of human Claudin 6 (position 156 in the sequence shown in SEQ ID NO: 44 or 45) was substituted to leucine to make a human CLDN6 mutant comprising the same amino acid as human Claudin 9 at position 156. This human CLDN6 mutant was named as hCLDN6(Q156L) (SEQ ID NO: 53). Ba/F3 transfectant stably express hCLDN6(Q156L) was generated using similar method described in WO2008/087978. The established Ba/F3 transfectant was named BaF3_hCLDN6(Q156L). Binding activity of the generated CLDN6-TRABs against BaF3_hCLDN6(Q156L) was measured using the above mentioned FACS method and the results are shown in FIG. 1 and Table 3.

The target in another assay is T2, human CLDN3 (human, UniProt O15551 1-220).
T2 construct: whole, on cells; also called hCLDN3; BaF3_hCLDN3
T2 sequence (looked up): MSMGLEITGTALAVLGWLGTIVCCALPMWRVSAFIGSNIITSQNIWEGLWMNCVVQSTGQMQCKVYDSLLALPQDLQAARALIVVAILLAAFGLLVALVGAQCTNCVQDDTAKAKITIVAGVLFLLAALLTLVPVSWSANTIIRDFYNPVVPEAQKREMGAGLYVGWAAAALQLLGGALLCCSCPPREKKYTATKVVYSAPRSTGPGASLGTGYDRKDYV
Described as above. On the procedure:
as §1, §2

For a further assay, the target named is T3, mouse CLDN3 (mouse, UniProt Q9Z0G9 1-219).
T3 construct: whole, on cells; also called mCLDN3; BaF3_mCLDN3
T3 sequence (looked up): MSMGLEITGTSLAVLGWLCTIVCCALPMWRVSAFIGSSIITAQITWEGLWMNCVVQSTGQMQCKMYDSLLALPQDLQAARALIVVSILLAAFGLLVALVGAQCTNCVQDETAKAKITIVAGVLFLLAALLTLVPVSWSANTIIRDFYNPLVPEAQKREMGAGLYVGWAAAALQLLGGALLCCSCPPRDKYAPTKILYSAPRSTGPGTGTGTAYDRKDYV
Described as above. As for the experimental part:
as §1, §2

The target in another assay is T4, human CLDN4 (human, UniProt O14493 1-209).
T4 construct: whole, on cells; also called hCLDN4; BaF3_hCLDN4
T4 sequence (looked up): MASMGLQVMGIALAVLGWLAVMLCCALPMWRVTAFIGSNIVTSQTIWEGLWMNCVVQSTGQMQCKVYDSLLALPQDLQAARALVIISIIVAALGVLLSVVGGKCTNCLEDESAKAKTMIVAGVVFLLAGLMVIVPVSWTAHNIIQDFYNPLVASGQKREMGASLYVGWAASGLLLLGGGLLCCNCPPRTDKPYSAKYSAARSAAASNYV
The assay is described as above. On the procedure: as §1, §2

For the next assay, the target named is T5, hCLDN6(Q156L) (human, UniProt P56747 1-220).
T5 construct: Stably expressed on Ba/F3 cells; also called human CLDN6 mutant; BaF3_hCLDN6(Q156L)
T5 chain: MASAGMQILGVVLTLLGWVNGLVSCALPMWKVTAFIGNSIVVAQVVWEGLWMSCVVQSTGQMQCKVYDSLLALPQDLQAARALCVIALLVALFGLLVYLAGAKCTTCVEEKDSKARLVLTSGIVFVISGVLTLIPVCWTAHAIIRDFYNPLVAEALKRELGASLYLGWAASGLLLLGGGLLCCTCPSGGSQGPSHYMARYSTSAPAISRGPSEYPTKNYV
The assay is described as above. As for the experimental part:
as §1, §2

In assay [1] the target is T6, human CLDN6 (human, UniProt P56747 1-220).
T6 construct: 45 is entered here, 44 is equally possible; also called hCLDN6; human Claudin 6
T6 sequence: T5 chain with L156Q
Described as above. On the procedure:
as §1, §2

Assay [2] deals with T6, human CLDN6. The assay can be described thus: cell-based or functional assay.

B1: CH01/CD3 (bispecific antibody, human IgG1, kappa, N297A)
heavy 1: EVKLVESGGGLVKPGGSLKLSCAASGFTFNSYTMSWVRQTPAKRLEWVVTISSGGGRTYYPDSVKGRFTISRDNARNTLYLQMSSLRSEDTAMYYCIRGDYRYDGFAYWGQGTLVTVSTASTKGPSVFPLAPSSKSTSGGTAALGCLVKDYFPEPVTVSWNSGALTSGVHTFPAVLQSSGLYSLSSVVTVPSSSLGTQTYICNVNHKPSNTKVDKKVEPKSCDKTHTCPPCPAPELRGGPKVFLFPPKPKDTLMISRTPEVTCVVVDVSHEDPEVKFNWYVDGVEVHNAKTKPREEQYASTYRVVSVLTVLHQDWLNGKEYKCKVSNKALPAPIEKTISKAKGQPREPQVYTLPPSREEMTKNQVSLTCLVKGFYPSDIAVEWESNGQPENNYKTTPPYLDSDGSFFLYSKLTVDKSRWQQGNVFSCSVMHEALHNHYTQESLSLSP
light 1: DIQMTQSPASLSASVGETVTITCRASENIDSYLAWYQQKQGKSPQLLVYASTLLVDGVPSRFSGSRSGTQFSLKINSLQSEDVARYYCQHYYSIPYTFGSGTKLEIKRTVAAPSVFIFPPSDEQLKSGTASVVCLLNNFYPREAKVQWKVDNALQSGNSQESVTEQDSKDSTYSLSSTLTLSKADYEKHKVYACEVTHQGLSSPVTKSFNRGEC
heavy 2: QVQLVESGGGVVQPGGSLRLSCAASGFTFSNAWMHWVRQAPGKGLEWVAQIKDKSQNYATYVAESVKGRFTISRADSKNSIYLQMNSLKTEDTAVYYCRYVHYAAGYGVDIWGQGTTVTVSSASTKGPSVFPLAPSSKSTSGGTAALGCLVKDYFPEPVTVSWNSGALTSGVHTFPAVLQSSGLYSLSSVVTVPSSSLGTQTYICNVNHKPSNTKVDKKVEPKSCDKTHTCPPCPAPELRGGPKVFLFPPKPKDTLMISRTPEVTCVVVDVSHEDPEVKFNWYVDGVEVHNAKTKPREEQYASTYRVVSVLTVLHQDWLNGKEYKCKVSNKALPAPIEKTISKAKGQPREPQVYTLPPSRKEMTKNQVSLTCLVKGFYPSDIAVEWESNGQPENNYKTTPPYLDSDGSFFLYSKLTVDKSRWQQGNVFSCSVMHEALHNHYTQKSLSLSP
light 2: DIVMTQSPLSLPVTPGEPASISCRSSQPLVHSNRNTYLHWYQQKPGQAPRLLIYKVSNRFSGVPDRFSGSGSGTDFTLKISRVEAEDVGVYYCGQGTQVPYTFGQGTKLEIKRTVAAPSVFIFPPSDEQLKSGTASVVCLLNNFYPREAKVQWKVDNALQSGNSQESVTEQDSKDSTYSLSSTLTLSKADYEKHKVYACEVTHQGLSSPVTKSFNRGEC
notes: Made by Fab arm exchange of the bivalent anti-CLDN6 antibody CH01 with the bivalent anti-CD3 antibody CD3-1; human IgG1 constant region; One anti-CLDN6 arm and one anti-CD3 arm; also called CLDN6-TRAB; CLDN6-targeted T-cell redirecting bispecific antibody
With B1, the “Geo-mean value of FACS” value was determined as 31 in the assay with mouse CLDN4; 37 with human CLDN3; 26 in the assay with mouse CLDN3; 51 with human CLDN4; 114 in the assay with hCLDN6(Q156L); 4480 with human CLDN6 [1]. Further, the “EC50 (read off the curve), Jurkat/NFAT-RE luciferase reporter, target cells HuH-7” value with human CLDN6 [2] is around 0.09 nM.
